# Data reported in patent US20240082437A1 (Hoffmann-La Roche, published 2024).
# T1: Carcinoembryonic antigen (CEA) (human, UniProt P06731 35-685)
# T1 construct: whole, on cells; also called Carcinoembryonic antigen-related cell adhesion molecule 5; CEACAM5
# T1 sequence (looked up): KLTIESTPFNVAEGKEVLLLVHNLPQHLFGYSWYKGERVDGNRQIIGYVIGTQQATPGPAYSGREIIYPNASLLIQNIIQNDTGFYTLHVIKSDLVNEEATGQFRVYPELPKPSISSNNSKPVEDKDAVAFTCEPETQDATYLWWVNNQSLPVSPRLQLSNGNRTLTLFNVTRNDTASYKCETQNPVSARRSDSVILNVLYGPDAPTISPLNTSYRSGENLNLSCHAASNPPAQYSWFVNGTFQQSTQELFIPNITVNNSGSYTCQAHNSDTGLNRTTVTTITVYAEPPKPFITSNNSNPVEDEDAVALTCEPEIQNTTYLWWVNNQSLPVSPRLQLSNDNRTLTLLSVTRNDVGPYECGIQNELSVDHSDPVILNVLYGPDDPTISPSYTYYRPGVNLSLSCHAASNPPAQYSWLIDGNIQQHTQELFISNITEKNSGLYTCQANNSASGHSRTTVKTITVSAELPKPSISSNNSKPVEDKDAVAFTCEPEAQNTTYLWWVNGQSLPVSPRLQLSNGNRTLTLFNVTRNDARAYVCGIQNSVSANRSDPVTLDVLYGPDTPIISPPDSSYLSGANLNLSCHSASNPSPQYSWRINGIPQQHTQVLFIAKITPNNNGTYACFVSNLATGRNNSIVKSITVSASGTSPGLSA
# Columns and labels:
# [1] = target: T1, Carcinoembryonic antigen (CEA); assay: flow cytometry on MKN45 cells (CEA), hemibody mixed 1:1 with human ISO control, detected with anti-human IgG(H+L) (FITC in the legend box, A488 in the title)
# Protocol: To assess the functionality of the split antibodies or hemibodies, MKN-45 cells were detached from the culture vessel using accutase at 37° C. for 10 minutes. Subsequently, the cells were washed twice in PBS, and seeded into 96 well v-bottom plates to a final density of 4×10⁶ cells/well.
# Subsequently, the cells were incubated for 1 h on ice and washed twice in PBS. The cell pellet was resuspended and 40 μl/well of detection reagent was added, either <human IgG(H+L)>FITC, (10 μg/ml) or Pb_Dotam_FITC 1:100=>(10 μg/ml) in PBS/5% FCS. After 60 min incubation on ice, the cells were washed twice in PBS and resuspended in 200 μl PBS/5% FCS for measurement of FITC fluorescence using a FACS canto.
# [2] = target: T1, Carcinoembryonic antigen (CEA); assay: FACS on MKN-45 cells, detection with anti-huIgG(H+L)-Alexa488
# Protocol: MKN-45 cells were detached from the culture bottle using Trypsin and were counted using a Casy cell counter. After pelleting at 4° C., 300 g the cells were resuspended in FACS Buffer (2.5% FCS in PBS), adjusted to 2.0E+06 cells/mL dispensed to 96-well PP V-bottom-Platte (25 μL/well=5.0E+04Zellen/well).
# Both antibodies were added to the cells either separated followed by buffer or combined and incubated at 4° C. for 1 h. The cells were then washed twice in FACS buffer. After washing, the cells were resuspended in 50 μL FACS-buffer containing secondary antibody (<huIgG(H+L)>-Alexa488, c=10 μg/mL) and incubated 1 h at 4° C. The cells were then washed twice in FACS buffer and resuspended in 70 μl/well FACS buffer for measurement using a FACS Canto (BD, Pharmingen).
Binder,EC50 (read off the curve) [1],EC50 [2]
"P1AD8749 (antibody, human IgG1, kappa, L234A L235A, Split antibody (hemibody) with CH1A1A anti-CEA Fabs; also called CEA-split-DOTAM-VH; PRIT Split Antibody with DOTAM-VH) heavy 1: QVQLVQSGAEVKKPGASVKVSCKASGYTFTEFGMNWVRQAPGQGLEWMGWINTKTGEATYVEEFKGRVTFTTDTSTSTAYMELRSLRSDDTAVYYCARWDFAYYVEAMDYWGQGTTVTVSSASTKGPSVFPLAPSSKSTSGGTAALGCLVKDYFPEPVTVSWNSGALTSGVHTFPAVLQSSGLYSLSSVVTVPSSSLGTQTYICNVNHKPSNTKVDKKVEPKSCDKTHTCPPCPAPEAAGGPSVFLFPPKPKDTLMISRTPEVTCVVVDVSHEDPEVKFNWYVDGVEVHNAKTKPREEQYNSTYRVVSVLTVLHQDWLNGKEYKCKVSNKALGAPIEKTISKAKGQPREPQVCTLPPSRDELTKNQVSLSCAVKGFYPSDIAVEWESNGQPENNYKTTPPVLDSDGSFFLVSKLTVDKSRWQQGNVFSCSVMHEALHNHYTQKSLSLSPG heavy 2: not shown light: DIQMTQSPSSLSASVGDRVTITCKASAAVGTYVAWYQQKPGKAPKLLIYSASYRKRGVPSRFSGSGSGTDFTLTISSLQPEDFATYYCHQYYTYPLFTFGQGTKLEIKRTVAAPSVFIFPPSDEQLKSGTASVVCLLNNFYPREAKVQWKVDNALQSGNSQESVTEQDSKDSTYSLSSTLTLSKADYEKHKVYACEVTHQGLSSPVTKSFNRGEC",~1 µg/mL,–
"P1AF0713 (antibody, Split antibody with CH1A1A anti-CEA Fabs; Both heavy chains carry VH-CH1; also called CEA specific SPLIT antibody (DOTA-VH-AST); P6_B) heavy 1: QVQLVQSGAEVKKPGASVKVSCKASGYTFTEFGMNWVRQAPGQGLEWMGWINTKTGEATYVEEFKGRVTFTTDTSTSTAYMELRSLRSDDTAVYYCARWDFAYYVEAMDYWGQGTTVTVSSASTKGPSVFPLAPSSKSTSGGTAALGCLVKDYFPEPVTVSWNSGALTSGVHTFPAVLQSSGLYSLSSVVTVPSSSLGTQTYICNVNHKPSNTKVDKKVEPKSCDKTHTCPPCPAPEAAGGPSVFLFPPKPKDTLMISRTPEVTCVVVDVSHEDPEVKFNWYVDGVEVHNAKTKPREEQYNSTYRVVSVLTVLHQDWLNGKEYKCKVSNKALGAPIEKTISKAKGQPREPQVCTLPPSRDELTKNQVSLSCAVKGFYPSDIAVEWESNGQPENNYKTTPPVLDSDGSFFLVSKLTVDKSRWQQGNVFSCSVMHEALHNHYTQKSLSLSPG heavy 2: not shown light: DIQMTQSPSSLSASVGDRVTITCKASAAVGTYVAWYQQKPGKAPKLLIYSASYRKRGVPSRFSGSGSGTDFTLTISSLQPEDFATYYCHQYYTYPLFTFGQGTKLEIKRTVAAPSVFIFPPSDEQLKSGTASVVCLLNNFYPREAKVQWKVDNALQSGNSQESVTEQDSKDSTYSLSSTLTLSKADYEKHKVYACEVTHQGLSSPVTKSFNRGEC",–,2.3 µg/mL
"P1AF0712 (antibody, Split antibody with CH1A1A anti-CEA Fabs; Both heavy chains carry VH-CH1; also called CEA specific SPLIT antibody (DOTA-VL); P6_A) heavy 1: not shown heavy 2: QVQLVQSGAEVKKPGASVKVSCKASGYTFTEFGMNWVRQAPGQGLEWMGWINTKTGEATYVEEFKGRVTFTTDTSTSTAYMELRSLRSDDTAVYYCARWDFAYYVEAMDYWGQGTTVTVSSASTKGPSVFPLAPSSKSTSGGTAALGCLVKDYFPEPVTVSWNSGALTSGVHTFPAVLQSSGLYSLSSVVTVPSSSLGTQTYICNVNHKPSNTKVDKKVEPKSCDKTHTCPPCPAPEAAGGPSVFLFPPKPKDTLMISRTPEVTCVVVDVSHEDPEVKFNWYVDGVEVHNAKTKPREEQYNSTYRVVSVLTVLHQDWLNGKEYKCKVSNKALGAPIEKTISKAKGQPREPQVCTLPPSRDELTKNQVSLSCAVKGFYPSDIAVEWESNGQPENNYKTTPPVLDSDGSFFLVSKLTVDKSRWQQGNVFSCSVMHEALHNHYTQKSLSLSPGGGGGSGGGGSGGGGSGGGGSQAVVIQESALTTPPGETVTLTCGSSTGAVTASNYANWVQEKPDHLFTGLIGGHNNRPPGVPARFSGSLIGDKAALTIAGTQTEDEAIYFCALWYSDHWVIGGGTKLTVL light: DIQMTQSPSSLSASVGDRVTITCKASAAVGTYVAWYQQKPGKAPKLLIYSASYRKRGVPSRFSGSGSGTDFTLTISSLQPEDFATYYCHQYYTYPLFTFGQGTKLEIKRTVAAPSVFIFPPSDEQLKSGTASVVCLLNNFYPREAKVQWKVDNALQSGNSQESVTEQDSKDSTYSLSSTLTLSKADYEKHKVYACEVTHQGLSSPVTKSFNRGEC",–,2.7 µg/mL
